T1: biotin-conjugated KIFC1 (residues 1-50)
T1 sequence (peptide, biotin on the N-terminus): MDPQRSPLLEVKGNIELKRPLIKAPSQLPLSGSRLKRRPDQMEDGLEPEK


Biological target: T1, biotin-conjugated KIFC1 (residues 1-50)
Assay: BLI

Kd [nM] | koff [s⁻¹] | kon [M⁻¹ s⁻¹] | Binder
9.31 | 0.000682 | 73100 | 6CD1-IMGT IgG (antibody, V domains shown) VH: EVQLQQSGAELVKPGASVKLSCTASGFNIKDTYIHWVKQRPEQGLEWIGRIDPANGNTKYDPKFQGKATITADTSSNTAYLQLSSLTSEDTAVYYCARGYGSRSAMDYWGQGTSVTVS VL: DIVLTQSPASLAVSLGQRATISCRASQSLFNSRTRKNYMLWYQQKPGQPPKLLIYLASNLESGVPARFSGSGSGTDFTLNIHPVEEEDAATYYCQHSRELPWTFGGGTKLEIK
10.6 |  |  | 6C407 IgG (antibody, V domains shown) VH: EVQLQQSGAELVKPGASVKLSCTASGFNIKDTYIHWVKQRPEQGLEWIGRIDPANGNTKYDPKFQGKATITADTSSNTAYLQLSSLTSEDTAVYYCARGYGSRSAMDYWGQGTSVTVS VL: DIVLTQSPASLAVSLGQRATISCRASKSVSTSGYSYMLWYQQKPGQPPKLLIYLASNLESGVPARFSGSGSGTDFTLNIHPVEEEDAATYYCQHSRELPWTFGGGTKLEIK
